Data: patent US9926369B2, “Methods for treating hepatocellular cancer by administering an anti-Ang-2 antibody” (Regeneron Pharmaceuticals, Inc., priority 2009, dated 2018)

T1: hAng-1-WT binding to hTie-2-mFc (Homo sapiens, UniProt Q15389)
T1 sequence (Q15389 20-498 limits assumed): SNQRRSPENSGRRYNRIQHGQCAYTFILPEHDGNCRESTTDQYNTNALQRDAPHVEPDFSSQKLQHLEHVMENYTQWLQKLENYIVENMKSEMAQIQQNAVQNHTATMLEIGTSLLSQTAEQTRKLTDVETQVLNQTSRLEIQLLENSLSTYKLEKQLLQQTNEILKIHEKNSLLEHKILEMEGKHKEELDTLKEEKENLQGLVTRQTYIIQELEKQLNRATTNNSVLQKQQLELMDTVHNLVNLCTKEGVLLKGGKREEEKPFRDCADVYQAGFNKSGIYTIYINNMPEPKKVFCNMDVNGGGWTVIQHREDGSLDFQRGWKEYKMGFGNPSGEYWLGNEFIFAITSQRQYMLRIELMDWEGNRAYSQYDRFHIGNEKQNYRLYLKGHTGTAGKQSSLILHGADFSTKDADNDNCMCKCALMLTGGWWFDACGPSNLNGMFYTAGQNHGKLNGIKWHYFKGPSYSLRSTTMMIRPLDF

T2: hAng-2-WT binding to hTie-2-mFc (Homo sapiens, UniProt O15123)
T2 sequence (O15123 19-496): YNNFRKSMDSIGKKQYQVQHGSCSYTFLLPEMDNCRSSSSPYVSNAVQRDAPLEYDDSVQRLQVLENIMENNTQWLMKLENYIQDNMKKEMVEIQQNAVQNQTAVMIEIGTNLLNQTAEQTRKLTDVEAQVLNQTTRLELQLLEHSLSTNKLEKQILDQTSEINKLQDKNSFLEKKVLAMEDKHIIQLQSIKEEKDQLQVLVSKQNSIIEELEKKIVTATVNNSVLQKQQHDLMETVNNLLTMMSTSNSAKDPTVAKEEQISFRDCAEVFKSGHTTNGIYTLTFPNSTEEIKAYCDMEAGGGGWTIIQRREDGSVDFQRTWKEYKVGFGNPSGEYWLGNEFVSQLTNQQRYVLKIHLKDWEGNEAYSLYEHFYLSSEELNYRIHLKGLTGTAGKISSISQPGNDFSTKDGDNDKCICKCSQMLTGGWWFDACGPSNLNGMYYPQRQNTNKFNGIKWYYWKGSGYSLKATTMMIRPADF


Experiments:
[1] = biological target: T1, hAng-1-WT binding to hTie-2-mFc; test: Biosensor SPR blocking of hAng-1-WT binding to hTie-2-mFc-ecto surface; format: biochemical; settings: 10 nM hAng-1-WT
Experimental: In an effort to further assess the ability of selected anti-hAng-2 antibodies to block the binding of Ang-1 to Tie-2, a biosensor surface plasmon resonance experiment was conducted. In this experiment, a human Tie-2 full-length extracellular domain construct (hTie-2-mFc-ecto) was amine-coupled on a BIACORE™ chip to create a receptor coated surface. Selected anti-hAng-2 antibodies and control constructs, at 1 μM (100-fold excess over antigen), were premixed with 10 nM of hAng-1-WT, followed by 60 minutes incubation at 25° C. to allow antibody-antigen binding to reach equilibrium to form equilibrated solutions. The equilibrated solutions were injected over the receptor surfaces at 5 μL/min for 5 minutes at 25° C. Changes in resonance units (RU) due to the binding of the hAng-1-WT to hTie-2-mFc were determined. An irrelevant peptibody construct with no binding to hAng-1 was included in this experiment to establish the 0% blocking baseline, and a human Tie-2-mFc construct was used as a positive control for blocking. The amount of Ang-1 bound to Tie-2 following antibody preincubation, expressed as a percentage of the amount of Ang-1 bound to Tie-2 following negative control preincubation, is shown in Table 20. (A greater amount of Ang-1 binding to Tie-2 signifies a lower degree of antibody blocking).
(§1) The foregoing experiment was repeated using different amounts of Ang-2 blockers and controls. In particular, a human Tie-2 full-length extracellular domain construct (hTie-2-mFc-ecto) was amine-coupled on a BIACORE™ chip to create a receptor-coated surface. Selected anti-hAng-2 antibodies and control constructs (50 or 150 nM) were mixed with hAng-2-WT (25 nM) followed by 60 minutes incubation at 25° C. to allow antibody-antigen binding to reach equilibrium. The equilibrated solutions were injected over the receptor surfaces at 10 μL/min for 5 minutes at 25° C. To evaluate the ability of the selected anti-hAng-2 antibodies to block Ang-1-WT binding to hTie-2, a similar procedure was followed except the antibodies were tested at three concentrations (50, 100 or 1000 nM) and incubated with 10 nM of hAng-1-WT. Changes in resonance units (RU) due to the binding of the Ang-2-WT or hAng-1-WT to hTie-2-mFc were determined. An irrelevant antibody with no binding to either angiopoietin was included in these experiments to establish the 0% blocking baseline, and a human Tie-2-mFc construct was used as a positive control for blocking. Results are summarized in Tables 21 (hAng-1 applied to a hTie-2 surface) and 22 (hAng-2 applied to a hTie-2 surface).

[2] = biological target: T2, hAng-2-WT binding to hTie-2-mFc; test: Biosensor SPR blocking of hAng-2-WT binding to hTie-2-mFc-ecto surface; format: biochemical; settings: 25 nM hAng-2-WT
Experimental: as §1

[3] = test system: retinal superficial vasculature; test: Retinal vascularization in hu-Ang-2 mice; format: in vivo; settings: 12.5 mg/kg subcutaneous at P2, retina at P5
Experimental: (§2) In one set of experiments wild-type mice were used. In another set, mice expressing a human Ang-2 in place of the wild-type mouse Ang-2 (designated “hu-Ang-2 mice”) were used. The mice at two days of age (P2) were injected subcutaneously with either control Fc or with selected anti-Ang-2 antibodies at a dose of 12.5 mg/kg. Three days later (at P5), pups were euthanized, and eyeballs were enucleated and fixed in 4% PFA for 30 minutes. Retinas were dissected, stained with Griffonia simplicifolia lectin-1 for 3 hours or overnight at 4° C. to visualize the vasculature, and flat-mounted on microscope slides. Images were taken using a Nikon Eclipse 80i microscope camera and analyzed using Adobe Photoshop CS3, Fovea 4.0, and Scion 1.63 software.
(§3) Areas of the retina covered with superficial vasculature were measured and used as a readout of antibody activity. The reduction in the size of the vascular areas in mice treated with antibody compared to Fc-treated controls is presented in Table 34. The percent reduction in vascular area reflects the anti-angiogenic potency of the antibody. (N/D=not determined)

[4] = test system: Tie-2 phosphorylation (Ang-2-mediated) in HUVECs; test: Inhibition of Ang-2-mediated Tie-2 phosphorylation in FOXO1-adenovirus infected HUVECs; format: cell-based, human; settings: antibody 0.5 μg/ml
Experimental: Further, the inventors have shown that infection of HUVECs with an adenovirus encoding FOXO1 results in expression and secretion of Ang-2, followed by activation of Tie-2 phosphorylation (Daly et al. 2006 PNAS 103:15491).
Anti-Ang-2 antibodies were tested for their ability to inhibit Tie-2 phosphorylation. Briefly, 7×10^5 HUVECs (Vec Technologies, Rensselaer, N.Y.) were plated in 6 cm cell culture dishes in 3.5 ml of MCDB131 Complete medium (Vec Technologies, Rensselaer, N.Y.). The following day, the cells were washed with Opti-MEM (Invitrogen Corp., Carlsbad, Calif.) and fed with 2 ml of Opti-MEM. […] Cells were then washed with MCDB131 and fed with 2 ml of MCDB131 containing anti-Ang-2 antibodies at a concentration of 0.5 μg/ml. At twenty hours post infection, cells were lysed and subjected to Tie-2 immunoprecipitation as described by Daly et al., Proc. Natl. Acad. Sci. USA 103:15491-15496 (2006). Immunoglobulin was collected on protein A/G beads (Santa Cruz Biotechnology, Santa Cruz, Calif.) for one hour. Beads were washed with cold lysis buffer and resuspended in SDS sample buffer for analysis by western blot with antibodies specific for phosphotyrosine (Millipore, Billerica, Mass.) or Tie-2. Signals were detected using HRP-conjugated secondary antibodies and ECL reagents (GE Healthcare, Piscataway, N.J.). X-Ray films were scanned and the phospho-Tie-2 and Tie-2 signals were quantified using ImageJ software. The phospho-Tie-2/Tie-2 ratios were used to determine the % inhibition for each anti-Ang-2 antibody (i.e. Percent inhibition=Reduction in phospho-Tie-2/Tie-2 as compared to control).

[5] = test system: retinal superficial vasculature; test: Retinal vascularization in wild-type mice; format: in vivo; settings: 12.5 mg/kg subcutaneous at P2, retina at P5
Experimental: as §2, §3

[6] = test system: PC3 (Human Prostate Cancer Cell Line) tumors; test: PC3 mouse tumor model; format: in vivo, NCr nude mice; settings: PC3, 10 mg/kg intraperitoneal twice per week
Experimental: Briefly, 5×10^6 PC3 cells in 100 μl of growth factor-reduced Matrigel (BD Biosciences) were injected subcutaneously into the flanks of 6-8 week old male NCr nude mice (Taconic, Hudson, N.Y.). After tumor volumes reached an average of about 200 mm^3, mice were randomized into groups for treatment. […] Tumor volumes were measured twice per week over the course of the experiment and tumor weights were measured upon excision of tumors at the conclusion of the experiment. Averages (mean+/−standard deviation) of tumor weight and growth were calculated for each treatment group. Percent decrease of tumor weight and growth were calculated from comparison to Fc protein measurements.

Row | Molecule | Percent of Neg. Ctrl Binding (hAng-1 WT) ([1]; 50 nM antibody or control) [%] | Specific Bound RU (hAng-1 WT) ([1]; 50 nM antibody or control) [RU] | Percent of Neg. Ctrl Binding (hAng-1 WT) ([1]; 100 nM antibody or control) [%] | Specific Bound RU (hAng-1 WT) ([1]; 100 nM antibody or control) [RU] | Percent of Neg. Ctrl Binding (hAng-1 WT) ([1]; 1000 nM antibody or control) [%] | Specific Bound RU (hAng-1 WT) ([1]; 1000 nM antibody or control) [RU] | Percent of Neg. Ctrl Binding (hAng-2 WT) ([2]; 50 nM antibody or control) [%] | Specific Bound RU (hAng-2 WT) ([2]; 50 nM antibody or control) [RU] | Percent of Neg. Ctrl Binding (hAng-2 WT) ([2]; 150 nM antibody or control) [%] | Specific Bound RU (hAng-2 WT) ([2]; 150 nM antibody or control) [RU] | % Reduction in Vascular Area Relative to Fc Control, hAng-2 Mice [3] [%] | Inhibition of Tie-2 phosphorylation [4] | Inhibition of Tie-2 phosphorylation (in words) [4] | % Reduction in Vascular Area Relative to Fc Control, Wild-Type Mice [5] [%] | Avg Tumor Weight ([6]; approximately three weeks, mean ± SD) [g] | Avg Tumor Growth ([6]; mean ± SD) [mm^3] | % Decrease in Tumor Growth ([6]; vs Fc protein) [%] | % Decrease in Tumor Weight ([6]; vs Fc protein) [%]
1 | hTie-2-mFc: chimeric construct consisting of human Tie-2 conjugated to mouse IgG; positive control for blocking (protein) MDSLASLVLCGVSLLLSGTVEGAMDLILINSLPLVSDAETSLTCIASGWRPHEPITIGRDFEALMNQHQDPLEVTQDVTREWAKKVVWKREKASKINGAYFCEGRVRGEAIRIRTMKMRQQASFLPATLTMTVDKGDNVNISFKKVLIKEEDAVIYKNGSFIHSVPRHEVPDILEVHLPHAQPQDAGVYSARYIGGNLFTSAFTRLIVRRCEAQKWGPECNHLCTACMNNGVCHEDTGECICPPGFMGRTCEKACELHTFGRTCKERCSGQEGCKSYVFCLPDPYGCSCATGWKGLQCNEACHPGFYGPDCKLRCSCNNGEMCDRFQGCLCSPGWQGLQCEREGIPRMTPKIVDLPDHIEVNSGKFNPICKASGWPLPTNEEMTLVKPDGTVLHPKDFNHTDHFSVAIFTIHRILPPDSGVWVCSVNTVAGMVEKPFNISVKVLPKPLNAPNVIDTGHNFAVINISSEPYFGDGPIKSKKLLYKPVNHYEAWQHIQVTNEIVTLNYLEPRTEYELCVQLVRRGEGGEGHPGPVRRFTTASIGLPPPRGLNLLPKSQTTLNLTWQPIFPSSEDDFYVEVERRSVQKSDQQNIKVPGNLTSVLLNNLHPREQYVVRARVNTKAQGEWSEDLTAWTLSDILPPQPENIKISNITHSSAVISWTILDGYSISSITIRYKVQGKNEDQHVDVKIKNATIIQYQLKGLEPETAYQVDIFAENNIGSSNPAFSHELVTLPESQAPADLGGGKGPGEPRGPTIKPCPPCKCPAPNLLGGPSVFIFPPKIKDVLMISLSPIVTCVVVDVSEDDPDVQISWFVNNVEVHTAQTQTHREDYNSTLRVVSALPIQHQDWMSGKEFKCKVNNKDLPAPIERTISKPKGSVRAPQVYVLPPPEEEMTKKQVTLTCMVTDFMPEDIYVEWTNNGKTELNYKNTEPVLDSDGSYFMYSKLRVEKKNWVERNSYSCSVVHEGLHNHHTTKSFSRTPGK | 22 | 70 | 13 | 39 | 0 | −47 | 35 | 97 | 30 | 82 |  |  |  |  |  |  |  | 
2 | H1H690P: anti-Ang-2 antibody, HCVR/LCVR SEQ ID NOs 42/44 (antibody, V domains shown) VH: EVQLVESGGGLVQPGESLRLSCAASGFTFSSYAMSWVRQGPGKGLEWVSSITGSGDTTYYADSVKGRFTISRDNSKNTLYLHMNSLRAEDTAVYYCAKDFLDYSTYLAFDLWGQGTMVTVSS VL: EIVLTQSPATLSLSPGERATLSCRASQSVSSYLTWYQQKPGQAPRLLSYDASNRATGIPARFSGSGSGTDFTLTISSLEPEDFAVYYCQQRSNWPLTFGGGTKVEIK |  |  |  |  |  |  |  |  |  |  | 41.5 | +++ (75-100%) | Especially robust inhibition | 30.7 |  |  |  | 
3 | H1H724N: anti-Ang-2 antibody (724N) cloned onto human IgG1 (antibody, V domains shown) VH: QVQLVESGGGVVQPGRSLRLSCAASGFTLSNYGMHWVRQAPGKGLEWVAVIWHDGSNTYYADSVKGRFTISRDNSKNTLYLQMNSLRAEDTAVYYCTREGLDFWSGYYPNWFDPWGQGTLVTVSS VL: DIQMTQSPSSLSASVGDRVTITCRASQGIRNDLGWYQQKPGKAPKRLIYAASNLQGGVPSRFSGSGSGTEFTLTISSLQPEDFAAYYCLQHNIYPLTFGGGTKVEIK |  |  |  |  |  |  |  |  |  |  | 33.2 |  |  | 32.2 | 0.55 ± 0.07 | 392 ± 169 | 23 | 17
